According to PMC7408665:

target: anti-E7 mAb; assay: ELISA; conditions: read off a plot

Substance	response
recombinant His-E7 protein of HPV16 (from UniProt P03129) C24P	1.3 OD450
recombinant His-E7 protein of HPV16 (from UniProt P03129) D36H	1.3 OD450
recombinant His-E7 protein of HPV16 (from UniProt P03129) E10Q	1.1 OD450
recombinant His-E7 protein of HPV16 (from UniProt P03129) E18Q	1 OD450
recombinant His-E7 protein of HPV16 (from UniProt P03129) L22A	1 OD450
